{
  "source": "patent US9644034B2",
  "about": "“Anti-RSPO2 antibodies and uses thereof” (OncoMed Pharmaceuticals, Inc., priority 2011, dated 2017)",
  "key": {"PN7 tumors": {"tested_on": "PN7 tumors", "experiment": "Serial transplantation of cells from treated PN7 tumors (tumorigenicity)", "format": "in vivo, NOD-SCID mice", "settings": "90 cells injected, 40 days growth with no treatment; vs control antibody", "method": "The PN7 tumors described above were processed to yield single cell suspensions. Mouse cells were depleted from the cell mixtures using biotinylated anti-H2K^d and anti-CD45 antibodies and streptavidin-conjugated magnetic beads. The remaining human tumor cells were serially transplanted into a new cohort of mice. 90 tumor cells from each treatment group were injected into the flanks of NOD-SCID mice (n=10 mice per group). Tumors were allowed to grow for 40 days with no treatment and tumor volumes were measured with electronic calipers."}, "[1]": {"tested_on": "PN31 pancreatic tumor cells", "experiment": "PN31 pancreatic tumor xenograft growth in NOD/SCID mice", "format": "in vivo", "settings": "vs control; antibodies 15 mg/kg once a week, gemcitabine once a week, intraperitoneal", "method": "Dissociated PN31 pancreatic tumor cells (1×10^5cells) were injected subcutaneously into the flanks of 6-8 week old NOD/SCID mice. Tumors were allowed to grow for 61 days until they reached an average volume of 120 mm^3. The mice were randomized (n=10 per group) and treated with anti-RSPO1 antibody 89M5, anti-RSPO2 antibody 130M23, gemcitabine, a combination of 89M5 and gemcitabine, a combination of 130M23 and gemcitabine, or control antibody 1B7.11. Antibodies were dosed at 15 mg/kg once a week, and gemcitabine was dosed at […] once a week. Administration of the antibodies and gemcitabine was performed via injection into the intraperitoneal cavity. Tumor growth was monitored and tumor volumes were measured with electronic calipers at specific time points. Data are expressed as mean±S.E.M."}, "binding of RSPO1 to LGR5": {"biological_target": "T1, binding of RSPO1 to LGR5 (Homo sapiens, UniProt Q2MKA7)", "T1 construct": "full-length human RSPO1, RSPO2, RSPO3 and RSPO4 were ligated in-frame to a human Fc region; made in house; host or cells: RSPO1-Fc: insect cells (baculovirus); LGR5 construct: transiently transfected HEK-293", "T1 sequence (Q2MKA7 21-263)": "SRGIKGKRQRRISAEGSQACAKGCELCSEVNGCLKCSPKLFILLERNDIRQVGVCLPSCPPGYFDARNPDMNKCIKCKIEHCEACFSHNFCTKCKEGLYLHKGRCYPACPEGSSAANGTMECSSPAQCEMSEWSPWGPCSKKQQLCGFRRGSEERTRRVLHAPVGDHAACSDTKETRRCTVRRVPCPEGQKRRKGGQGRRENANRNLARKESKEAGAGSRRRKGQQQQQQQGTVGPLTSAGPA", "experiment": "FACS: blocking of soluble RSPO1-Fc binding to LGR5 on HEK-293 cells", "settings": "RSPO1-Fc 10 μg/ml, antibodies 10 μg/ml", "method": "HEK-293 cells were transiently transfected with the FLAG-LGR5-CD4TM-GFP construct (previously described in Example 2). After 48 hours, transfected cells were suspended in ice cold PBS containing 2% FBS and heparin and incubated on ice in the presence of RSPO1-Fc protein (10 μg/ml) and antibodies 89M2, 89M4, 89M5, 89M7, 89M19 or 89M25 (10 μg/ml). A second incubation with 100 μl PE-conjugated anti-human Fc secondary antibody was performed to detect cells bound by the RSPO1-Fc fusion protein. The cells were analyzed on a FACSCalibur instrument (BD Biosciences, San Jose, Calif.) and the data was processed using FlowJo software."}, "[2]": {"tested_on": "RSPO1-induced β-catenin signaling", "experiment": "TOPflash luciferase assay in HEK-293 cells, Wnt3a plus human RSPO1", "format": "cell-based", "settings": "Wnt3a 5 ng/ml, RSPO1 10 ng/ml; antibodies 10 to 0.625 μg/ml", "method": "HEK-293 cells were transfected with a 6×TCF-luciferase reporter vector (TOPflash, Millipore, Billerica, Mass.). After 24-48 hrs, the transfected HEK-293 cells were incubated with a combination of Wnt3a (5 ng/ml) and human RSPO1 (10 ng/ml, R&D BioSystems) in the presence of anti-RSPO1 antibodies 89M2, 89M4, 89M5, 89M7, 89M19, and 89M25, or 2 irrelevant control antibodies 254M14 and 254M26 (2-fold dilutions at 10 μg/ml to 0.625 μg/ml). The cells were incubated for 16 hours and luciferase activity was measured using Steady-Glo® Luciferase Assay System according to the manufacturer's instructions (Promega, Madison, Wis.)."}, "human RSPO1": {"biological_target": "T2, human RSPO1 (Homo sapiens, UniProt Q2MKA7)", "T2 construct": "followed by the two furin-like domains of RSPO1 (aa 34-135); expressed in transfected cells; host or cells: HEK-293", "T2 sequence (Q2MKA7 34-135)": "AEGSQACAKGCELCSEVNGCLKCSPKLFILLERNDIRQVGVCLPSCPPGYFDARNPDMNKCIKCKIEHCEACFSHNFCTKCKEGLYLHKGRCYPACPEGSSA", "experiment": "FACS screening of hybridoma supernatants on HEK-293 cells expressing FLAG-RSPO1furin-CD4TM-GFP", "format": "binding", "excerpt": "Antibodies were generated against recombinant human RSPO1 protein amino acids 31-263 (R&D Systems, Minneapolis, Minn.). Mice (n=3) were immunized with RSPO1 protein using standard techniques. Sera from individual mice were screened against RSPO1 approximately 70 days after initial immunization using FACS analysis. The animal with the highest antibody titer was selected for final antigen boost after which spleen cells were isolated for hybridoma production. SP2/0 cells were used as fusion partners for the mouse spleen cells. Hybridoma cells were plated at 1 cell per well in 96 well plates, and the supernatants were screened against human RSPO1 by FACS analysis.\nFor FACS screening of anti-RSPO1 antibodies a chimeric fusion protein enabling cell surface expression of the N-terminal furin-like domains of human RSPO1 was constructed.\nHEK-293 cells were transfected with FLAG-RSPOlfurin-CD4TM-GFP. After 48 hours, transfected cells were suspended in ice cold PBS containing 2% FBS and heparin and incubated on ice in the presence of 50 μl of hybridoma supernatants for 30 minutes. A second incubation with 100 μl PE-conjugated […] secondary antibody was performed to detect cells bound by antibody. Cells were incubated with an anti-FLAG antibody (Sigma-Aldrich, St. Louis, Mo.) as a positive control and an anti-PE antibody as a negative control. The cells were analyzed on a FACSCalibur instrument (BD Biosciences, San Jose, Calif.) and the data was processed using FlowJo software."}, "[3]": {"tested_on": "PN7 pancreatic tumor cells", "experiment": "PN7 pancreatic tumor xenograft growth in NOD/SCID mice", "format": "in vivo", "settings": "vs control antibody; 130M23 10 mg/kg, 18R5 20 mg/kg, gemcitabine once a week, intraperitoneal", "method": "Dissociated PN7 pancreatic tumor cells (1×10^5cells) were injected subcutaneously into the flanks of 6-8 week old NOD/SCID mice. Tumors were allowed to grow for 25 days until they reached an average volume of 130 mm^3. The mice were randomized (n=10 per group) and treated with anti-RSPO2 antibody 130M23, anti-FZD antibody 18R5, gemcitabine, a combination of 130M23 and gemcitabine, a combination of 18R5 and gemcitabine, a combination of 130M23 and 18R5, a combination of 130M23, 18R5 and gemcitabine, or control antibody 1B7.11. Anti-RSPO2 antibody 130M23 was dosed at 10 mg/kg once a week, anti-FZD antibody 18R5 was dosed at 20 mg/kg once a week, and gemcitabine was dosed at […] once a week. Administration of the antibodies and gemcitabine was performed via injection into the intraperitoneal cavity. Tumor growth was monitored and tumor volumes were measured with electronic calipers at specific time points. Data are expressed as mean±S.E.M. A parallel set of experiments included mice treated with a FZD8-Fc soluble receptor (10 mg/kg) in combination with gemcitabine and FZD8-Fc in combination with 130M23 and gemcitabine."}, "RSPO": {"tested_on": "RSPO", "experiment": "FACS RSPO binding activity of conditioned media from HEK-293 cells cotransfected with candidate humanized chains", "settings": "conditioned media of cotransfected HEK-293 cells", "method": "The functionality of each candidate variant humanized heavy chain and light chain was tested by cotransfection into mammalian cells. Each candidate humanized heavy chain described above was cotransfected into HEK-293 cells with the murine light chain cDNA, and conditioned media was assayed by FACS for RSPO binding activity. […] The 89M5-H2 humanized heavy chain was cotransfected into HEK-293 cells with each of the candidate humanized light chains, and conditioned media was again assayed for antigen binding by FACS. […] The 130M23-H1 humanized heavy chain was cotransfected into HEK-293 cells with each of the candidate humanized light chains, and conditioned media was again assayed for antigen binding by FACS."}},
  "data": [
    {"molecule": "Nc1ccn([C@@H]2O[C@H](CO)[C@@H](O)C2(F)F)c(=O)n1", "note": "[gemcitabine, reference compound]", "values": [
      {"measurement": "tumorigenicity of cells isolated from treated mice", "setting": "PN7 tumors", "result": "decrease in tumorigenicity"},
      {"measurement": "reduction in tumor growth", "setting": "[1]", "result": 49, "unit": "%"}
    ]},
    {"molecule": "89M2: anti-RSPO1 monoclonal antibody; same heavy and light chain variable regions as 89M5 (antibody, V domains shown) VH: EVQLQQSGPELVKPGASVKISCKTSGYTFTGYTMHWVRQSHGKTLEWIGGINPNNGGTTYNQNFKGKATLTVEKSSTTAYLELRSLTSEDSALYYCARKEFSDGYYFFAYWGQGTLVTVSA VL: DIVMTQSHKFMSTSVGDRVNITCKASQDVIFAVAWYQQKPGQSPKLLIYWASTRHTGVPDRFTGSVSGTDYTLTISSVQAEDLALYYCQQHYSTPWTFGGGTKLEIK", "values": [
      {"measurement": "blocking of binding of RSPO1 to LGR5", "setting": "binding of RSPO1 to LGR5", "result": "blocked"},
      {"measurement": "blocking of RSPO1-induced β-catenin signaling", "setting": "[2]", "result": "blocked"},
      {"measurement": "binding to RSPO1 (FACS)", "setting": "human RSPO1", "result": "bound"}
    ]},
    {"molecule": "89M4: anti-RSPO1 monoclonal antibody; same heavy and light chain variable regions as 89M5 (antibody, V domains shown) VH: EVQLQQSGPELVKPGASVKISCKTSGYTFTGYTMHWVRQSHGKTLEWIGGINPNNGGTTYNQNFKGKATLTVEKSSTTAYLELRSLTSEDSALYYCARKEFSDGYYFFAYWGQGTLVTVSA VL: DIVMTQSHKFMSTSVGDRVNITCKASQDVIFAVAWYQQKPGQSPKLLIYWASTRHTGVPDRFTGSVSGTDYTLTISSVQAEDLALYYCQQHYSTPWTFGGGTKLEIK", "values": [
      {"measurement": "blocking of binding of RSPO1 to LGR5", "setting": "binding of RSPO1 to LGR5", "result": "blocked"},
      {"measurement": "blocking of RSPO1-induced β-catenin signaling", "setting": "[2]", "result": "blocked"},
      {"measurement": "binding to RSPO1 (FACS)", "setting": "human RSPO1", "result": "bound"}
    ]},
    {"molecule": "18R5: anti-FZD antibody, Wnt pathway inhibitor (antibody, chains of the INN, looked up, V domains shown) VH: EVQLVESGGGLVQPGGSLRLSCAASGFTFSHYTLSWVRQAPGKGLEWVSVISGDGSYTYYADSVKGRFTISSDNSKNTLYLQMNSLRAEDTAVYYCARNFIKYVFANWGQGTLVTVSS VL: DIELTQPPSVSVAPGQTARISCSGDNIGSFYVHWYQQKPGQAPVLVIYDKSNRPSGIPERFSGSNSGNTATLTISGTQAEDEADYYCQSYANTLSLVFGGGTKLTVL", "values": [
      {"measurement": "tumorigenicity of cells isolated from treated mice", "setting": "PN7 tumors", "result": "greatly decreased tumorigenicity"},
      {"measurement": "reduction in tumor growth", "setting": "[3]", "result": "approximately 55%"}
    ]},
    {"molecule": "89M5-H2: humanized 89M5 heavy chain variant (SEQ ID NO:68) (antibody, h89M5-H2L2 Heavy chain amino acid sequence) heavy: QVQLVQSGAEVKKPGASVKVSCKTSGYTFTGYTMHWVRQAPGQRLEWMGGINPNNGGTTYNQNFKGRVTITRDTSASTAYMELSSLRSEDTAVYYCARKEFSDGYYFFAYWGQGTLVTVSSASTKGPSVFPLAPCSRSTSESTAALGCLVKDYFPEPVTVSWNSGALTSGVHTFPAVLQSSGLYSLSSVVTVPSSNFGTQTYTCNVDHKPSNTKVDKTVERKCCVECPPCPAPPVAGPSVFLFPPKPKDTLMISRTPEVTCVVVDVSHEDPEVQFNWYVDGVEVHNAKTKPREEQFNSTFRVVSVLTVVHQDWLNGKEYKCKVSNKGLPAPIEKTISKTKGQPREPQVYTLPPSREEMTKNQVSLTCLVKGFYPSDIAVEWESNGQPENNYKTTPPMLDSDGSFFLYSKLTVDKSRWQQGNVFSCSVMHEALHNHYTQKSLSLSPGK", "values": [
      {"measurement": "binding by FACS among candidate humanized chain variants", "setting": "RSPO", "result": "most robust binding"}
    ]},
    {"molecule": "89M5-L2: humanized 89M5 light chain variant (SEQ ID NO:69) (protein, h89M5-H2L2 Light chain amino acid sequence) light: DIQMTQSPSSLSASVGDRVTITCKASQDVIFAVAWYQQKPGKAPKLLIYWASTRHTGVPSRFSGSGSGTDYTLTISSLQPEDFATYYCQQHYSTPWTFGGGTKVEIKRTVAAPSVFIFPPSDEQLKSGTASVVCLLNNFYPREAKVQWKVDNALQSGNSQESVTEQDSKDSTYSLSNTLTLSKADYEKHKVYACEVTHQGLSSPVTKSFNRGEC", "values": [
      {"measurement": "binding by FACS among candidate humanized chain variants", "setting": "RSPO", "result": "most robust binding"}
    ]},
    {"molecule": "130M23-H1: humanized 130M23 heavy chain variant (SEQ ID NO:70) (antibody, h130M23-H1L2 Heavy chain amino acid sequence) heavy: EVQLVESGGGLVKPGGSLRLSCAASGFTFSSYAMSWVRQAPGKGLEWVSSISSGGSTYYPDSVKGRFTISRDNAKNSLYLQMNSLRAEDTAVYYCARGGDPGVYNGDYEDAMDYWGQGTTVTVSSASTKGPSVFPLAPCSRSTSESTAALGCLVKDYFPEPVTVSWNSGALTSGVHTFPAVLQSSGLYSLSSVVTVPSSNFGTQTYTCNVDHKPSNTKVDKTVERKCCVECPPCPAPPVAGPSVFLFPPKPKDTLMISRTPEVTCVVVDVSHEDPEVQFNWYVDGVEVHNAKTKPREEQFNSTFRVVSVLTVVHQDWLNGKEYKCKVSNKGLPAPIEKTISKTKGQPREPQVYTLPPSREEMTKNQVSLTCLVKGFYPSDIAVEWESNGQPENNYKTTPPMLDSDGSFFLYSKLTVDKSRWQQGNVFSCSVMHEALHNHYTQKSLSLSPGK", "values": [
      {"measurement": "binding by FACS among candidate humanized chain variants", "setting": "RSPO", "result": "most robust binding"}
    ]},
    {"molecule": "130M23-L2: humanized 130M23 light chain variant (SEQ ID NO:71) (protein, h130M23-H1L2 Light chain amino acid sequence) light: DIQMTQSPSSLSASVGDRVTITCKASQDVSSAVAWYQQKPGKAPKLLIYWASTRHTGVPSRFSGSGSGTDFTLTISSVQAEDFATYYCQQHYSTPWTFGQGTKVEIKRTVAAPSVFIFPPSDEQLKSGTASVVCLLNNFYPREAKVQWKVDNALQSGNSQESVTEQDSKDSTYSLSNTLTLSKADYEKHKVYACEVTHQGLSSPVTKSFNRGEC", "values": [
      {"measurement": "binding by FACS among candidate humanized chain variants", "setting": "RSPO", "result": "most robust binding"}
    ]}
  ]
}
